Assay [1] concerns the target Rf IgM contained in native samples from patients with elevated Rf levels. Put plainly: Elecsys µ-capture (anti-IgM-Ru detection); native sample E8, Rf 339 IU/mL.
For assay [2] the target is unchanged. Description: Elecsys µ-capture (anti-IgM-Ru detection); native sample C9, Rf 640 IU/mL.
Assay [3] shares this target. Put plainly: Elecsys µ-capture (anti-IgM-Ru detection); native sample RF-3-2, Rf 401 IU/mL.
The target is the same in assay [4]. Put plainly: Elecsys µ-capture (anti-IgM-Ru detection); native sample RF_3_10, Rf 322 IU/mL.
For assay [5] the target is unchanged. Put plainly: Elecsys µ-capture (anti-IgM-Ru detection); native sample RF_3_3, Rf 394 IU/mL.
For assay [6] the target is unchanged. Put plainly: Elecsys µ-capture (anti-IgM-Ru detection); native sample B6, Rf 386 IU/mL.
Assay [7] shares this target. Put plainly: Elecsys µ-capture (anti-IgM-Ru detection); native sample RF_3_7, Rf 318 IU/mL.
Assay [8] shares this target. Put plainly: Elecsys µ-capture (anti-IgM-Ru detection); native sample A5, Rf 466 IU/mL.
Assay [9] has the same target. Description: Elecsys µ-capture (anti-IgM-Ru detection); native sample D4, Rf 566 IU/mL.
Assay [10] shares this target. Description: Elecsys µ-capture (anti-IgM-Ru detection); native sample RF_3_12, Rf 457 IU/mL.
The target is the same in assay [11]. Description: Elecsys µ-capture (anti-IgM-Ru detection); native sample D8, Rf 572 IU/mL.
The target is the same in assay [12]. Description: Elecsys µ-capture (anti-IgM-Ru detection); native sample RF_2_32, Rf 655 IU/mL.
Assay [13] shares this target. Put plainly: Elecsys µ-capture (anti-IgM-Ru detection); native sample RF_3_8, Rf 402 IU/mL.
For assay [14] the target is unchanged. Description: Elecsys µ-capture (anti-IgM-Ru detection); native sample RF_3_6, Rf 371 IU/mL.
For assay [15] the target is unchanged. Description: Elecsys µ-capture (anti-IgM-Ru detection); native sample RF_3_9, Rf 439 IU/mL.
Assay [16] shares this target. Put plainly: Elecsys µ-capture (anti-IgM-Ru detection); native sample RF-3-4, Rf 321 IU/mL.
Assay [17] has the same target. Put plainly: Elecsys µ-capture (anti-IgM-Ru detection); native sample RF-3-11, Rf 383 IU/mL.
Assay [18] has the same target. Description: Elecsys µ-capture (anti-IgM-Ru detection); native sample RF_2_31, Rf 457 IU/mL.
Assay [19] has the same target. Put plainly: Elecsys µ-capture (anti-IgM-Ru detection); native sample RF_2_33, Rf 377 IU/mL.
Assay [20] shares this target. Put plainly: Elecsys µ-capture (anti-IgM-Ru detection); native sample RF_3_5, Rf 402 IU/mL.
Assay [21] has the same target. Description: Elecsys µ-capture (anti-IgM-Ru detection); native sample RF_3_1, Rf 430 IU/mL.
The target is the same in assay [22]. Description: Elecsys µ-capture (anti-IgM-Ru detection); native sample E2, Rf 423 IU/mL.
Assay [23] has the same target. Put plainly: Elecsys µ-capture (anti-IgM-Ru detection); native sample RF_3_13, Rf 1492 IU/mL.

B1: 21F12 F(ab′)2 fragment (protein)
VH: EVQLQQSGPELLKPGASVKISCKASGFTFTDYTMHWMKQSHGKSLEWIGGINPNSGGTIYNEKFKDKATLTVDKSSRTAYMELRSLTSEDSAVYFCTRGVYDGYFYWGQGTLVTVSA
VL: DVVMTQTPLSLPVSLGDQASISCRSSQSLVYSNGNTFLHWYLQKPGQSPKLLIYKVSTRFSGVPDRFSGSGSGSDFTLKISRVEAEDLGIYFCSQTTHAPFTFGSGTKLAIR
As to B1, the Elecsys counts in [1] is 118000 counts; in [2] it was 8240 counts; in [3] it was 282000 counts; in assay [4], 8620 counts; in assay [5], 5850 counts; in assay [6], 103000 counts. Moreover, the Elecsys counts in [7] worked out at 7580 counts; in [8], 11600 counts; in assay [9], 13300 counts; in assay [10], 5670 counts; in assay [11], 242000 counts; in [12] it was 4220 counts. In addition, the Elecsys counts is 6820 counts in assay [13]; 24500 counts in assay [14]; 14500 counts in assay [15]; 99600 counts in [16]; 69300 counts in assay [17]; 27300 counts in assay [18]. The Elecsys counts in [19] came out at 9430 counts; in [20] it was 10400 counts; in assay [21] it was 19700 counts; in assay [22], 102000 counts; in [23] it was 4740 counts.

Values taken from patent US20240352110A1.
